Test: label from the status in PepcDB records

Sequence	protein production
MSHNEESPGIGPGAGGQDSTTALIEAINIRSMSLIVLTSIASLYFIEWAQPVLLPLVVAVLISYALDPLVATLDRIHIPRPLGAALVLCTLIAILAAASVPLKQEAMAMLDKIPQAIKELQREDASTSEDEESIMEKAQIAAKQIEETAENREGKPAVQAGVTPVRVVDEPMDVRDYVIRNSPATIVLISQMFSVLLLVFFLLSVGKLYRRKIVRISGPSFRRMRKAARIMNELHHQVRRFLFVMVISALFVGILTWLAFLLLGVEQAALWGVVAGIASGVPYLGPFLVLVGSGVAAFLQFGELNTAVIVALTSLVITSIQGNLLMPWLTSYVSSLNAVAIFIGLLFWGWLWGPVGLIVATPILMIAKSVCDHVVNFRPVGELLGK	failed
MFDQYRKTILAGAVALTCGLTAASTFAAGFQPAQPAGKLGAVVVDPYGNAPLTALVELDSHIISDVKVTVHGKGEKGVPVTYTVGKESLETYDGIPIFGLYQKFANNVTVEYKENGKAMKDDYVVQTSAIVNHYMDNRSISDLQQTKVIKVAPGFEDRLYLVNTHTFTPQGAEFHWHGEKDKNAGILDAGPAGGALPFDIAPYTFVVDTQGEYRWWLDQDTFYDGHDMNINKRGYLMGIRETPRGTFTAVQGQHWYEFDMMGQILADHKLPRGFLDASHESIETVNGTVLLRVGKRVTAKKTAYMFILFVTKSLRSISLAALEHHHHHH	failed
MKQWIAALLLMLIPGVQAAKPQKVTLMVDDVPVAQVLQALAEQEKLNLVVSPDVSGTVSLHLTDVPWKQALQTVVKSAGLITRQEGNILSVHSIAWQNDNIARQEAEQARAQANLPLENRSITLQYADAGELAKAGEKLLSAKGSMTVDKRTNRLLLRDNKTALSALEQWVAQMDLPVGQVELSAHIVTINEKSLRELGVKWTLADAQHAGGVGQVTTLGSDLSVATATTHVGFNIGRINGRLLDLELSALEQKQQLDIIASPRLLASHLQPASIKQESEIPYQVSSGESGATSVEFKEAVLGMEVTPTVLQKGRIRLKLHISQNVPGQVLQQADGEVLAIDKQEIETQVEVKSGETLALGGIFTRKNKSGQDSVPLLGDIPWFGQLFRHDGKEDERRELVVFITPRLVSSELEHHHHHH	not failed
MMHPVASSNPAFCGPGKPSCLNEDAMRAADQFDIYSSQQSKYSHTVNHKPMVCQRQDPLNETHLQTTSGRSIEIKDELKKKKNLNRSGKRGRPSGTTKSAGYRTSTGRPLGTTKAAGFKTSPGRPLGTTKAAGYKVSPGRPPGSIKALSRLADLGYGCGTAAFPYPMMHGRAVHGVEETSSEVKPPNE	failed
MDQTAEEKMVRERIRKKVNEVSSASQSLLSPVQDHINFTLQKAYFKCAYECFDRTRTHAEISRCAESCSVPITNAQNYFDNEMSVFQERLNRSLVVCQDKFEVAKQQKTRSEAVNDLEHCVNQTVDEAVKTLPNLVSRMKKALSITD	failed
MSLLIRELETNDLDNFPEIDDSFIVNARLMLSLSKVNRRIEYTVEDVPSYEKSYLQNDNEELVYNEYINKPNQIIYIALLHNQIIGFIVLKKNWNNYAYIEDITVDKKYRTLGVGKRLIAQAKQWAKEGNMPGIMLETQNNNVAACKFYEKCGFVIGGFDFLVYKGLNMTSDEVAIYWYLHFDS	failed
WTCNKFRCGEKRLTRSLCACSDDCKDQGDCCINYSSVCQGEKS	not failed
HYSPFRSQPVDCVLWVKQELVAPNDYNPNNVAPPEKRLLQTSLEADGFTQPVVVIQQRPQAYTIVDGFHRHELACSKAALKKTLKGYLPVTCLTSEAASRDGLMAATIRHNRARGRHQ	failed
MWVYRLKGTLEALDPILPGLFDGGARGLWEREGEVWAFFPAPVDLPYEGVWEEVGDEDWLEAWRRDLKPALAPPFVVLAPWHTWEGAEIPLVIEPGMAFGTGHHETTRLALKALARHLRPGDKVLDLGTGSGVLAIAAEKLGGKALGVDIDPMVLPQAEANAKRNGVRPRFLEGSLEAALPFGPFDLLVANLYAELHAALAPRYREALVPGGRALLTGILKDRAPLVREAMAGAGFRPLEEAAEGEWVLLAYGR	not failed
MSAATKQQCCARAEVPVRNLHSCDVFGLPAGGAFGRPRRDKENDMSLGTIILIILIIALLGGFTGVGGGPFYGTGYYGGGGLGLVIVILLILLLLGKI	failed
STSPEIASLSWGQMKVKGSNTTYKDCKVWPGGSRTWDWRETGTEHSPGVQPADVKEVVEKGVQTLVIGRGMSEALKVPSSTVEYLKKHGIDVRVLQTEQAVKEYNALVAQGVRVGGVFHSTC	not failed

— a protein production outcome set (Wang et al. 2014)
